Measured values published in CN112741804A (SHANGHAI JUNSHI BIOSCIENCES CO LTD; JUNMENG BIOSCIENCES CO …, dated 2021).

Biological target: T1, human PD-L1 (programmed death-ligand 1), soluble protein (human, UniProt Q9NZQ7 19-238, limits assumed)
T1 construct: also called 人PD-L1; CD274
Assay: ELISA, PD-L1 coated on plate, HRP anti-human IgG detection

T1 sequence (Q9NZQ7 19-238 limits assumed): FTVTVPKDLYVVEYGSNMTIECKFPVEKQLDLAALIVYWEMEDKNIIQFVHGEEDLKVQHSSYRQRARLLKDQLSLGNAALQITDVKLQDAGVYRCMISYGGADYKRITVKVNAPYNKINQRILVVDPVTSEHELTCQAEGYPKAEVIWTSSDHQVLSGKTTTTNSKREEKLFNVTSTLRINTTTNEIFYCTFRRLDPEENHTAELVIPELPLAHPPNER

B1: JS003 (humanized anti-PD-L1 antibody, clone 30) (antibody, human IgG4 S228P, kappa, V domains shown)
VH: QGQLQESGPSLVKPSQTLSLTCTVSGDSITRGYWNWIRKHPGKGLEYIGYISYTGSTYSNLSLKSRVTISRDTSKNQYYLKLSSVTAADTAVYYCATSTGWLDPVDYWGQGTLVTVSS
VL: DIVMTQSPDSLAVSLGERATINCKASQNVDTSVAWFQQKPGQPPKALIYSASFRYSGVPDRFSGSGSGTDFTLTISSLQAEDVAVYFCQQYYGYPFTFGQGTKLEIKR
notes: Full humanized antibody; Tested from formulation no; 30; also called 人源化抗体30; 抗体30
EC50: 0.558 ng/mL

B2: humanized anti-PD-L1 antibody 38 (clone 38) (antibody, V domains shown)
VH: QGQLQESGPSLVKPSQTLSLTCTVSGDSITRGYWNWIRKPPGKGLEYIGYISYTGSTYSNLSLKSRVTISRDTSKNQYYLKLSSVTAADTAVYYCATSTGWLDPVDYWGQGTLVTVSS
VL: DIQMTQSPSSLSASVGDRVTITCRASQNVDTSVAWFQQKPGKAPKALIYSASFRYSGVPSRFSGSGSGTDFTLTISSLQPEDFATYFCQQYYGYPFTFGQGTKLEIK
EC50: 0.837 ng/mL
